These results are taken from article PMC4520616, “Biochemical Characterization of the Split Class II Ribonucleotide Reductase from Pseudomonas aeruginosa” (PLoS ONE, 2015).

To fix the notation:
B1: NrdJa-NrdJb (split class II ribonucleotide reductase, PA NrdJ) (Pseudomonas aeruginosa PAO1) (protein)
chain: MLRTVAGFGRPNNHREVNQRMAKTDARSPRTERGTIALQDASQDIWDKKYRLKSKDGTPVDASVDGTWQRVARALADVEDKASREHWYGRFLWALRNGAIPAGRIISNAGALGHKPATSTINCTVSGTIQDSMDNILEKVHEAGLTLKAGCGIGYEFSTLRPRGAYVSGAGAYTSGPLSFMDIYDKMCFTVSSAGGRRGAQMGTFDVSHPDVREFIRAKREDGRLRQFNLSLLITDQFMQAVEQDADWPLVFPVHVKERDEIDLDDPNAVVWREWPIQDDYVQRADGLVACKVYGQVRARHLWDMIMVSTYDYAEPGFILIDRVNELNNNWWCEAIRATNPCGEQPLPPYGSCLLGSVNLTCFVEQPFGDEARFDWDRFREVVRVFTRMLDNVVEINGLPLEQQRQEILGKRRHGMGFLGLGSTLTLLKLRYGSPEACVFTEEVAREMALVGWEVALELAREKGPAPILAQDYEVTAEMLRKRPEMAADGYKAGDRIRGSVLHAKYSRYMQRVAEHAPELIEALAETGARFTHHSSIAPTGTISLSLANNASNGIEPSFAHHYSRNLIREGRKTKEKVEVYSYELLAYRTLVNAQALPDSDDPARRLPDYFITADSVTPAQHMDIQAAAQKWVDSSISKTANVPTDYPFEDFKDIYRYAWHQGLKGCTTFRFNPEAFQGVLVKESDLEKTRYRFELEDGSVVEFKGNEQVEYDGEIHTAANLFDALKEGYYGKY
notes: E. coli BL21(DE3); NrdJa untagged in pET22, 734 residues; NrdJb 229 residues, codon-optimised, 6xHis in pET21 (C-terminal in results, N-terminal in methods); proposed (NrdJa-NrdJb)2; with Class II (cobalamin-dependent) ribonucleotide-diphosphate reductase subunit, NrdJb
B2: NrdJa subunit of the split class II ribonucleotide reductase from Pseudomonas aeruginosa (enzyme, UniProt Q9HT76 1-734, looked up)
chain: B1 chain
modifications: biotin linker (0.15 biotin linker/NrdJa monomer) only where NrdJa was immobilised on the streptavidin chip for SPR
notes: NrdJa, large subunit of the split class II ribonucleotide reductase (NrdJ) of Pseudomonas aeruginosa; 734 residues in PA; the nrdJa open reading frame was cloned into pET22; Monomer or dimer according to the allosteric effector (GEMMA); also called PA NrdJa
B3: NrdJb subunit of the split class II ribonucleotide reductase from Pseudomonas aeruginosa (enzyme, UniProt Q9HT77 1-229, looked up)
chain: MSAVKITQKIKGFKVVNEAEEQALAAAAEAASVVQMDETLERPDTLIGATYKIKSPLFEHALYVTINDMVLNAGTAHEQRRPFEIFINSKNMDHFQWIVALTRIMSAVFRKGGDCTFLVEELKAVFDPRGGYLKKGGIYMPSIVAEIGGVLERHLTAIGLLRGPELDEEQRLFLAEKRAAYEAAQGTSKVEPGEGFPAGAQLCGKCNSMAVVQMDGCATCLNCGHSKCG
modifications: biotin linker (0.05 biotin linker/NrdJb monomer) where NrdJb was immobilised on the streptavidin chip for SPR
notes: NrdJb, small subunit of the split class II ribonucleotide reductase (NrdJ) of Pseudomonas aeruginosa; 229 residues in PA; the gene encoding NrdJb was custom synthesised with codon optimisation for E. coli and cloned into pET21; No cleavage of the tag is described; Probably the whole 229-residue protein; also called PA NrdJb; His-tagged NrdJb; source: E. coli BL21(DE3), pET21, codon-optimised …

Substrate in series [1]: Nc1ccn([C@@H]2O[C@H](COP(=O)(O)OP(=O)(O)OP(=O)(O)O)[C@@H](O)[C@H]2O)c(=O)n1
In words: 3H-CTP reduction assay, Michaelis-Menten fit. The class given is biochemical, Pseudomonas aeruginosa. The following applies: 1 mM ATP, 100 μM AdoCbl, 30 mM DTT, 10 mM MgCl2, pH 7.5, labelled compound.

Series [2] concerns the molecule itself. As to the kind of experiment: gas phase electrophoretic macromolecule analysis (GEMMA); 0.02 mg/ml NrdJa in 40 mM ammonium acetate pH 7.8, 0.005% Tween-20, 2 mM DTT; with 50 uM dTTP and 1:1 Mg2+.
The target of series [3] is B2. In words: SPR; biotinylated NrdJb immobilised on streptavidin chip, 0-2 uM NrdJa injected; 30 mM Tris-HCl pH 7.0, 10 mM MgCl2, 0.025% P20, 2 mM DTT; with 0.5 mM CTP; steady state fit; apparent Kd. The following applies: both partners purified.
Series [4] concerns the target B2. In words: SPR; biotinylated NrdJb immobilised on streptavidin chip, 0-2 uM NrdJa injected; 30 mM Tris-HCl pH 7.0, 10 mM MgCl2, 0.025% P20, 2 mM DTT; with 0.5 mM dATP + 0.5 mM CTP + 40 uM AdoCbl; steady state fit; apparent Kd. The following applies: both partners purified. (Surface plasmon resonance follows binding to a sensor surface in real time, without labels.)

In series [5] the target is B2. In words: SPR; biotinylated NrdJb immobilised on streptavidin chip, 0-2 uM NrdJa injected at 30 ul/min; 30 mM Tris-HCl pH 7.0, 10 mM MgCl2, 0.025% P20, 2 mM DTT; no additive; steady state fit; apparent Kd. The following applies: both partners purified.
For series [6], the target named is B2. As to the kind of experiment: SPR; biotinylated NrdJb immobilised on streptavidin chip, 0-2 uM NrdJa injected; 30 mM Tris-HCl pH 7.0, 10 mM MgCl2, 0.025% P20, 2 mM DTT; with 40 uM AdoCbl; steady state fit; apparent Kd. The following applies: both partners purified.
Series [7] addresses B2. In words: SPR; biotinylated NrdJb immobilised on streptavidin chip, 0-2 uM NrdJa injected; 30 mM Tris-HCl pH 7.0, 10 mM MgCl2, 0.025% P20, 2 mM DTT; with 0.5 mM dATP; steady state fit; apparent Kd. The following applies: both partners purified.
Series [8] deals with B2. As to the kind of experiment: cell-based or functional assay.
For series [9], the target named is B2. As to the kind of experiment: SPR; biotinylated NrdJb immobilised on streptavidin chip, 0-2 uM NrdJa injected; 30 mM Tris-HCl pH 7.0, 10 mM MgCl2, 0.025% P20, 2 mM DTT; with 0.5 mM CTP + 40 uM AdoCbl; steady state fit; apparent Kd. The following applies: both partners purified.

Usually Km stands for the concentration of substrate that gives half-maximal velocity. By stoichiometry N is commonly meant the number of molecules, sites or subunits per partner or assembly.

For the molecule B1, the Km in [1] turned out to be 220 ± 60 µM.
B2: the “stoichiometry N” value in series [2] amounted to 2.
For B3, the Kd in series [3] was 360 ± 90 nM; in [4], 54 ± 12 nM; in series [5], 690 ± 60 nM; in series [6] it was 680 ± 100 nM; in series [7] it was 91 ± 17 nM; in [9] it was 300 ± 190 nM. Besides, in [8], the “stoichiometry from the enzyme activity titration (activity leveled off at approximately equimolar concentration of NrdJa and NrdJb)” value was found to be 1.
